Assay results taken from patent US20040009174A1.
“And” between values parts separate entries of the source, which are not always exact repeats. Identical values can stand only once. Blank lines part the entries; values can stand above or below the molecule they belong to.

Columns and labels:
[1] = molecular target: human CD40 (human) (UniProt P25942); test: cell-based or functional assay
[2] = molecular target: human OX40 ligand (OX40L) (human) (UniProt P23510); test: cell-based or functional assay
Chain of UniProt P23510 (P23510 whole entry): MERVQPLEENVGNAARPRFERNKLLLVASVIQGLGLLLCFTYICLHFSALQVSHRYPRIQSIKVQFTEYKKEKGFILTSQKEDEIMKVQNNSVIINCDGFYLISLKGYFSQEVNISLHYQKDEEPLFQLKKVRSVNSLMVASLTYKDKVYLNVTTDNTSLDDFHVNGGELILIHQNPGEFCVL

Chain of UniProt P25942 (P25942 21-277): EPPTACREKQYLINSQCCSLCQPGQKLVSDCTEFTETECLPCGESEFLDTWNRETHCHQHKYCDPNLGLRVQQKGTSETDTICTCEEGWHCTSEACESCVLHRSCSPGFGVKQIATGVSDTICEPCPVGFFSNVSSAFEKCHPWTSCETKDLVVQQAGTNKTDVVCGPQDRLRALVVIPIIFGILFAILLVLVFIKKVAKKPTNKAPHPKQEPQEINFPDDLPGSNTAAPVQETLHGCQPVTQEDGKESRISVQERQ

IL-6 production by HASM cells (ELISA), 1 ug/ml [1]: 2 fold and 3 fold
Molecule: recombinant human soluble CD40L (from UniProt P29965 116-261) (ligand)

IL-6 production by HASM cells (ELISA), 1 ug/ml [2]: 2 fold and 3 fold
PKCβ2 in membrane fraction (Western blot), HASM cells [2]: 3 fold
B1: Soluble human recombinant OX40 [CD134]:Fc (Fc fusion, UniProt P43489 29-220, looked up, not shown: a dimerising Fc or GST)
chain: LHCVGDTYPSNDRCCHECRPGNGMVSRCSRSQNTVCRPCGPGFYNDVVSSKPCKPCTWCNLRSGSERKQLCTATQDTVCRCRAGTQPLDSYKPGVDCAPCPPGHFSPGDNQACKPWTNCTLAGKHTLQPASNSSDAICEDRDPPATQPQETQGPPARPITVQPTEAWPRTSQGPSTRPVEVPGGRAVAAILG
